Measurements published in patent CN113939539A (BIOSION BIO TECH NANJING CO LTD, dated 2022).

Key:
[1] = target: T1, 重组人CSF-1R-his蛋白 (Acro biosystems, Cat#CSR-H5228) (human, UniProt P07333 20-512); test: BLI (Octet), antibody on AHC sensor, CSF-1R-his in solution
T1 construct: Bought protein; also called human CSF-1R-his; not shown: His tag

[2] = target: T2, 猴CSF-1R-his蛋白 (内部制备, SEQ ID NO: 62) (monkey (cynomolgus), UniProt P07333 20-517 (human entry), limits assumed); test: indirect ELISA on coated monkey CSF-1R-his
T2 construct: Made in-house, coated in the indirect ELISA; also called monkey CSF-1R-his (in-house)
T2 chain: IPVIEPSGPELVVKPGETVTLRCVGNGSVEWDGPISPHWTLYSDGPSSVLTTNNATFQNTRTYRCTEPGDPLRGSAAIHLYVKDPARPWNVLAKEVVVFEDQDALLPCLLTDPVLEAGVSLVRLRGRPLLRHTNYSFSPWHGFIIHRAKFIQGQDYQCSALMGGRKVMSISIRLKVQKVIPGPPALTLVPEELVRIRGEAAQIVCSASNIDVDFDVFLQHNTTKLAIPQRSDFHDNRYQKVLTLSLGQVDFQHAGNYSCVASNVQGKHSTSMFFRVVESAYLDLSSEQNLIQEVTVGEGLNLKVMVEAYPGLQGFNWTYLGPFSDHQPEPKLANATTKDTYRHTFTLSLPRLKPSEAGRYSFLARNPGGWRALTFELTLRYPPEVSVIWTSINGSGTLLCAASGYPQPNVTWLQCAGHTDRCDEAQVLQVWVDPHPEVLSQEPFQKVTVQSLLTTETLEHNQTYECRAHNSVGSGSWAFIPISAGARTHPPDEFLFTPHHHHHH

[3] = target: T3, 生物素标记的人CSF-1R-Fc蛋白 (human, biotin-labelled (sites not given)); test: capture ELISA: antibody captured by anti-human IgG, biotin-CSF-1R-Fc in solution
T3 construct: Made in-house; also called human CSF-1R-Fc

Measured: binding result

T1 sequence (P07333 20-512 limits assumed): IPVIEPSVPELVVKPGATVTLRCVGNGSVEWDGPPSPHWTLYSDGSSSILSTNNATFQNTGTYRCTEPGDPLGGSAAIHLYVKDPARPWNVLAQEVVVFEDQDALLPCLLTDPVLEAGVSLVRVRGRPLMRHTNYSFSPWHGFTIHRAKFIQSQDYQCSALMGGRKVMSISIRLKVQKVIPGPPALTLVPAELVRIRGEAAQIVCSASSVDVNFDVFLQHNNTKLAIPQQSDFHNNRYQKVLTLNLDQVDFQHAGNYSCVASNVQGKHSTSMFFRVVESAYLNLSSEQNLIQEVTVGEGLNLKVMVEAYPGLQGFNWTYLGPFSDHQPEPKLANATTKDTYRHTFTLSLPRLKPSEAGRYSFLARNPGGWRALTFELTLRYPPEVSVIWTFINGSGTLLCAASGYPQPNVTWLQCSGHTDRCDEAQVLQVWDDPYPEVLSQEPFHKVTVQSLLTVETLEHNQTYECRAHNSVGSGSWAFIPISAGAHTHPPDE
T3 sequence (chain, as listed by the source limits assumed): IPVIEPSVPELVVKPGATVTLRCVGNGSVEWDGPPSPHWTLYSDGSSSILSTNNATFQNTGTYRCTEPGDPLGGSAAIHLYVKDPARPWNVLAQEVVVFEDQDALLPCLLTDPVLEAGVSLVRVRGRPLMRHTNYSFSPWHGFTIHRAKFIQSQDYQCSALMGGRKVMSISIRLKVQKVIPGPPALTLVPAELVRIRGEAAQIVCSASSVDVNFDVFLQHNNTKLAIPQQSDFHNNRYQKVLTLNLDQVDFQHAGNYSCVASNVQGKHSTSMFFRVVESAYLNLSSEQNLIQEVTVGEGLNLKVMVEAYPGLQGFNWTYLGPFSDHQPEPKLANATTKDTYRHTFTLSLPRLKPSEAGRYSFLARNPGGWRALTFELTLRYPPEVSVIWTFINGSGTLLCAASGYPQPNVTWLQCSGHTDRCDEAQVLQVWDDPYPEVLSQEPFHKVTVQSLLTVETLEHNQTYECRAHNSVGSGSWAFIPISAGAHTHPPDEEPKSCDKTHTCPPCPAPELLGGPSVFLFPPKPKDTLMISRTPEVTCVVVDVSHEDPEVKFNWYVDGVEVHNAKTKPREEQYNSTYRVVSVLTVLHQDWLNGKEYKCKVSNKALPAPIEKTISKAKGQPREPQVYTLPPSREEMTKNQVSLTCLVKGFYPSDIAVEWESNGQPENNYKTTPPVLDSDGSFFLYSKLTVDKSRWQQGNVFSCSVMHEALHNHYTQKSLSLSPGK

B1: 卡比利珠单抗 (antibody, human IgG4 S228P, kappa, V domains shown)
VH: QVQLVQSGAEVKKPGSSVKVSCKASGYTFTDNYMIWVRQAPGQGLEWMGDINPYNGGTTFNQKFKGRVTITADKSTSTAYMELSSLRSEDTAVYYCARESPYFSNLYVMDYWGQGTLVTVSS
VL: NIVLTQSPATLSLSPGERATLSCKASQSVDYDGDNYMNWYQQKPGQAPRLLIYAASNLESGIPARFSGSGSGTDFTLTISSLEPEDFAVYYCHLSNEDLSTFGGGTKVEIKR
notes: Made in-house; also called Cabiralizumab; 对照基准物
binds: all assays above
